Data set [1] concerns the target human β1-adrenergic receptor G49G389 variant (human) (UniProt P08588).
The target of data set [2] is human β1-adrenergic receptor S49G389 variant (human) (UniProt P08588).
Data set [3] addresses human β1-adrenergic receptor G49R389 variant (human) (UniProt P08588).
Data set [4] in a line: Western blot, N-terminal cleavage, CHO-ldlD cells.
A short description of data set [5]: Flow cytometry, surface full-length receptor, cMyc antibody, HEK293i. Particulars: control: S49 (WT) variant.
A short description of data set [6]: Western blot, cleavage at R31↓L32; HEK293, CHO-K1, NRVM. The conditions noted are these: glycan lost; control: S49 (WT) variant.
Data set [7] is described as follows: Western blot, P52↓L53 cleavage in isolated HEK293i membranes. The conditions noted are these: glycan lost; control: S49 (WT) variant.
A short description of data set [8]: Western blot, N-terminal cleavage, rat cardiomyocytes. Particulars: glycan lost.

Data on six substances can be found in PMC11880984, “Altered O‐glycosylation of β1‐adrenergic receptor N‐terminal single‐nucleotide variants modulates receptor processing and functional activity” (The Febs Journal, 2024).

Sequence of β-arrestin2 fused to Renilla luciferaseII (P32121 whole entry, the tested form may be a part): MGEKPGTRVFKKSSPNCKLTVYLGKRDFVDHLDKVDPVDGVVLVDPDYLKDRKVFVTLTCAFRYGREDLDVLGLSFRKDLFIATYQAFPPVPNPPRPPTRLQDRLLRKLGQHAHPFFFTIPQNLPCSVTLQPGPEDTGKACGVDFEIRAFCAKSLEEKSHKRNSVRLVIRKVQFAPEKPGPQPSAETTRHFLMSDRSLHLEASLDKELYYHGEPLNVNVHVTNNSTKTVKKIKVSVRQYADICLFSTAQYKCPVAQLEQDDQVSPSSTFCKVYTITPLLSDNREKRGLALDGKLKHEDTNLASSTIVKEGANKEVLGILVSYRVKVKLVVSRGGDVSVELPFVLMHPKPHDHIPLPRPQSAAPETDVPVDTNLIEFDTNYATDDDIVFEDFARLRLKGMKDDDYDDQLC
Sequence of human β1-adrenergic receptor G49R389 variant (human) (P08588 other isoform, or with tags, fused parts or gaps S49G | R389 (the paper's WT allele at rs1801253) | mutant): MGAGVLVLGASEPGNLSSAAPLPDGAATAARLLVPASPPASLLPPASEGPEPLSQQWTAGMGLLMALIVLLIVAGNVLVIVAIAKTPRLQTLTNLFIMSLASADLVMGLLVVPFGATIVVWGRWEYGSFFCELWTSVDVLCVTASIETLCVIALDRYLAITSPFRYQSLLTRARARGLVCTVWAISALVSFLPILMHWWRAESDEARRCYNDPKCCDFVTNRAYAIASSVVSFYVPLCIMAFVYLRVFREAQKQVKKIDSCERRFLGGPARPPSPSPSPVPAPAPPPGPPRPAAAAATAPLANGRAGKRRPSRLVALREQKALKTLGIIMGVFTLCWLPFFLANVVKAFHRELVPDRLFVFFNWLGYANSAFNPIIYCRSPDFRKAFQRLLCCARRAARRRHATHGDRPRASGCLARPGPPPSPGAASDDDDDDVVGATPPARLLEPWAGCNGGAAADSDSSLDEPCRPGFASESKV
Sequence of human β1-adrenergic receptor S49G389 variant (human) (P08588 whole entry, change not shown): as the sequence (P08588 other isoform, or with tags, fused parts or gaps S49G | R389 (the paper's WT allele at rs1801253) | mutant) above, with G49S, R389G counted along it
Sequence of human β1-adrenergic receptor G49G389 variant (human) (P08588 whole entry S49G): as the sequence (P08588 other isoform, or with tags, fused parts or gaps S49G | R389 (the paper's WT allele at rs1801253) | mutant) above, with R389G counted along it

In the case of “β-arrestin2 fused to Renilla luciferaseII (from UniProt P32121 1-409) (natural protein)”, the E max of isoproterenol-induced β-arrestin2 recruitment to the plasma membrane, enhanced bystander BRET (β-arrestin2-RlucII with rGFP-CAAX) in HEK293S cells, normalised to S49R389 in data set [1] turned out to be 83.3 % WT E max; in data set [2], 89.4 % WT E max; in data set [3], 97.8 % WT E max.

Take “human β1‐adrenergic receptor (hβ1AR): no GalNAc, no Gal”: in data set [4] (glycan lost, control: S49 (WT) in CHO-ldlD with Gal + GalNAc), the “other: proteolytic processing” value was “increases”.

For “human β1‐adrenergic receptor (hβ1AR): T29 variant”, the expression_or_secretion entry in data set [5] (glycan gained) is reported as “increases”.

“human β1‐adrenergic receptor (hβ1AR): G49 variant”: the “other: proteolytic processing” value in data set [6] is on record as “no change”; in data set [7], “increases”. Also, the expression_or_secretion result in data set [5] (glycan lost) is “no change”.

Turning to “human β1‐adrenergic receptor (hβ1AR): Galnt2 KO”, the “other: proteolytic processing” value is on record as “increases” in data set [8] (control: S49 (WT) in WT NRVMs) and “no change” in data set [8] (control: T29 variant in WT NRVMs).

Consider “human β1‐adrenergic receptor (hβ1AR): GalNAc only (Tn)”, for which the “other: proteolytic processing” value in data set [4] (glycan changed form, control: S49 (WT) in CHO-ldlD with Gal + GalNAc) is “increases”; in data set [4] (glycan changed form, control: T29 variant in CHO-ldlD with Gal + GalNAc), “no change”.
